Data from the supplement of paper PMC10567573.

B1: MTMR15 (parent)
chain: FSPDFTLRNTLKSTSEDSLVKQEC

Variants of: B1
Test: protein stability index of a GFP-peptide fusion (GPS, HEK-293T) (PSI 1-6); higher = more stable
Conditions: c terminus: a fixed tail appended
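Also: lentivirally expressed fusions sorted by FACS into six bins by GFP to DsRed ratio, PSI derived from sequencing read proportions per bin multiplied by bin number.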

Variant | protein stability index
N9R | 2.62
N9T | 2.09
L19M | 2.46
F1G | 5.09
K21W | 2.4
F5M | 3.62
F1E | 5.32
C24A | 2.03
T14W | 1.58
L11E | 2.25
V20K | 2.46
E16M | 2.29
T14K | 1.73
E23D | 1.52
K12P | 1.77
D17K | 1.69
S15V | 1.48
S2H | 2.55
C24K | 1.4
L11V | 2.26
T10S | 1.82
P3E | 3.14
V20E | 2.12
T6F | 1.84

Variant | protein stability index
L7T | 2.75
T14I | 1.62
T14D | 2.1
C24D | 2.59
T14S | 2.1
S15A | 1.64
L7Y | 2.27
R8I | 2.88
L11R | 1.81
V20G | 1.78
T14V | 2.43
N9E | 1.72
F1H | 4.96
K21C | 2.69
S13G | 1.81
K12F | 2.03
Q22P | 1.67
S15R | 2.34
D4E | 1.94
D17C | 1.47
T6D | 2.7
E16G | 1.93
L19P | 1.96
C24T | 1.98

Variant | protein stability index
L7W | 2.16
N9V | 2.18
R8G | 1.79
K21M | 2.86
R8H | 1.89
D17A | 1.89
Q22R | 1.72
L19W | 1.69
L11A | 1.57
S18K | 2.17
V20P | 2.44
R8Q | 2.62
S15Y | 1.83
D17M | 2.07
R8W | 2.17
T14Y | 1.72
N9G | 1.93
T10N | 1.87
S18N | 1.57
K12I | 2.6
T14P | 1.69
S15E | 1.82
S18L | 2.48
L11W | 1.81

Variant | protein stability index
T10F | 2.7
P3V | 2.58
T10I | 2.64
K12W | 3.33
E23H | 1.95
S15H | 1.93
V20S | 2.04
L11G | 2.11
E23S | 2.27
S13V | 1.97
E23M | 1.88
S15M | 1.99
Q22I | 2.06
Q22W | 2.08
R8E | 3.28
P3K | 2.26
S15Q | 1.84
E23V | 1.94
S13K | 1.58
E23K | 1.61
K21H | 2.83
S18Q | 2.01
T10H | 3.86
N9H | 1.57

Variant | protein stability index
T10G | 2.03
V20A | 2.09
P3H | 3.05
Q22T | 2.42
K12S | 2.04
D4M | 1.61
K21N | 2.94
N9M | 2.64
F1T | 5.28
K12V | 2.14
K21P | 1.86
E23F | 2.51
E16R | 1.76
C24W | 2.18
T6M | 1.92
F5N | 3.82
P3G | 2.27
T10D | 1.99
L11M | 2.31
L7I | 2.3
T14F | 2.82
E16C | 1.98
K12Q | 1.92
T14M | 2.05

Variant | protein stability index
L19A | 1.7
T10W | 2.32
T6R | 1.77
L19I | 2.5
D4C | 1.78
L7A | 1.99
V20I | 2.19
K21G | 2.15
V20F | 3.85
K12T | 1.67
F1L | 5.21
D4N | 2.23
S18P | 2.05
S2Y | 4.52
Q22H | 1.91
P3Q | 2.83
L7R | 2.56
L11N | 1.94
E16Q | 2.41
S13M | 2.02
C24H | 1.85
E16Y | 1.83
D17W | 2.6
D4S | 1.9

Variant | protein stability index
R8V | 2.14
R8A | 2.01
T14G | 2.49
D17V | 2.06
F5I | 3.65
F1Y | 2.04
S13Q | 2.31
N9P | 1.82
D17Q | 2.37
S15L | 1.96
Q22D | 1.92
Q22V | 2
P3T | 2.76
D4F | 1.53
D4G | 2.65
F5W | 3.6
C24P | 2.75
L19R | 2.15
E23L | 1.77
S18G | 1.76
L7P | 2.54
E23W | 2.59
K12A | 1.79
